Assay [1] deals with T1, recombinant human galectin-1 (R&D Systems) (human, UniProt P09382 2-135).
T1 construct: Bought from R&D Systems; also called rhGal1; human galetin-1
Description: SPR (BIAcore 3000, 25 C), 8A12 captured via anti-mouse antibody, galectin as analyte, 1:1 Langmuir fit. On the procedure: (§1) Surface Plasmon Resonance (SPR) analyses (also called Biomolecular Interaction Analysis, BIAcore) were also conducted in order to further define the biophysical properties (e.g., $kon$, $koff$, $koff/kon$ (K_D) of Gal1's interaction with the 8A12 mAb. SPR experiments were performed at 25° C. in the standard BIAcore running buffer HBS-EP on a BIAcore 3000 Instrument (BIAcore). In brief, anti-mouse antibody was first captured on the CM-5 sensor chip ((GE HealthCare). Afterwards, approximately 250 response units (RU) of anti-Gal1 mAb 8A12 were immobilized (with exception of ~350 RU for rmGal1 assay) and followed by various dilutions of recombinant galectin (human galetin-1, 2, 3, 4, 7, 8, 9 or murine galectin-1 (mGal1), from R&D Systems) to assess the binding of galectin 8A12. All data are shown after subtraction from a channel loaded with buffer alone. Data analysis to obtain the binding curves shown and equilibrium dissociation constant (KD) was performed using BIAevaluation 3.1 (BIAcore) by globally fitting the data to a simple 1:1 (Langmuir) binding model.
On the technique in general: SPR reads the build-up and loss of mass on a sensor chip optically.

For assay [2], the target named is T2, recombinant murine galectin-1 (R&D Systems) (mouse, UniProt P16045 2-135).
T2 construct: Bought from R&D Systems; also called rmGal1; mGal1
T2 sequence (P16045 2-135 limits assumed): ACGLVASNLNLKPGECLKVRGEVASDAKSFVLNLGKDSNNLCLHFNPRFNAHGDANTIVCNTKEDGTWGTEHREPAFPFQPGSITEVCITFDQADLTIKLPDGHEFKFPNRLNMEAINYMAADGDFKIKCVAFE
The description is as above. Here is the method: as §1

Assay [3] concerns the target T3, recombinant GST-tagged full length human Gal1 (F7) (human, UniProt P09382 1-135).
T3 construct: Produced in E. coli; also called GST-F7; not shown: glutathione S-transferase (GST) tag
Description: Western blot. On the procedure: Anti-Gal1 monoclonal antibodies were generated and were determined to cross-react well with both human Gal1 and mouse Gal1 (FIG. 1). […] Six recombinant human Gal1 fragments (covering the N-terminal, CBD, post-CBD sequences) named F1, F2, F3, F4, F5, F6 and the full length protein F7 in fusion with GST-tag were produced in E. coli (FIG. 2).
On the technique in general: A western blot detects proteins with antibodies after separation by electrophoresis.

The target in assay [4] is T4, endogenous human Gal1 (galectin-1) in lysates of the human Hodgkin lymphoma line L428 (human, UniProt P09382 2-135).
T4 construct: Endogenous protein in cell lysate, seen as a band of ~14 kDa on Western blot; also called hGal1
T4 sequence (P09382 2-135 limits assumed): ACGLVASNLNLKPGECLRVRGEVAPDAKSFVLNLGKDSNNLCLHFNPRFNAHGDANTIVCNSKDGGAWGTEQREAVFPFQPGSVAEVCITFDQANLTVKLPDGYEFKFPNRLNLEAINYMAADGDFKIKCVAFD
Kind of assay: Western blot of L428 cell lysate, antibody titration. The text has this:
(§2) WB analysis of cell lysates derived from human Hodgkin lymphoma line, L428 and murine melanoma line, B16-F10. Lysates were probed with 8A12 at different titration showing a specific band of Gal1 (~14 kDa), 8A12 recognizes endogenous human and murine Gal1 at similar range of titres.

Assay [5] deals with T5, recombinant human galectin-4 (R&D Systems) (human, UniProt P56470 2-323, limits assumed).
T5 construct: also called Gal4
T5 sequence (looked up): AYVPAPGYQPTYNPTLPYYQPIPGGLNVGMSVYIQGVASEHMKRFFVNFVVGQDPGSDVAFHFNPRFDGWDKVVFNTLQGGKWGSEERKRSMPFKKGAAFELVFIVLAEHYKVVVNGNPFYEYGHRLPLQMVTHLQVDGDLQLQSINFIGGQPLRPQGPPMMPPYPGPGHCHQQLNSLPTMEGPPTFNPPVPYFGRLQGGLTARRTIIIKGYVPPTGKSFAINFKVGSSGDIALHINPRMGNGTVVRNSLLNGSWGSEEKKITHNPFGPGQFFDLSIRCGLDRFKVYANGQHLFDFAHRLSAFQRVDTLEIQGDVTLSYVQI
Kind of assay: SPR (BIAcore 3000), 8A12 captured via anti-mouse antibody, galectin as analyte. Here is the method:
as §1

For assay [6], the target named is T6, recombinant human galectin-8 (R&D Systems) (human, UniProt O00214 1-317, limits assumed).
T6 construct: also called Gal8
T6 sequence (looked up): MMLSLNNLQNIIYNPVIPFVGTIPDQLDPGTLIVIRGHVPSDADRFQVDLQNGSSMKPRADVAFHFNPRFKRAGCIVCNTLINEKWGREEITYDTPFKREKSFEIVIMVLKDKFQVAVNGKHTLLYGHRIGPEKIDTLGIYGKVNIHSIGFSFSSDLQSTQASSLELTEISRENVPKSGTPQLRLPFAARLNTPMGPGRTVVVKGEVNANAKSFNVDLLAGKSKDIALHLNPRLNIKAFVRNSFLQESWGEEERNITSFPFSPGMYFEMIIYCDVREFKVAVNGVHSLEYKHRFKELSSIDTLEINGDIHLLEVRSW
The description is as above. Here is the method:
as §1

Assay [7] concerns the target T7, recombinant human galectin-9 (R&D Systems) (human, UniProt O00182-2 2-323, limits assumed).
T7 construct: also called Gal9
The assay is described as above. On the procedure: as §1

Assay [8] has as its target T8, recombinant human galectin-7 (R&D Systems) (human, UniProt P47929 2-136, limits assumed).
T8 construct: also called Gal7
The assay is described as above. Here is the method: as §1

Assay [9] concerns the target T9, recombinant human galectin-2 (R&D Systems) (human, UniProt P05162 1-132, limits assumed).
T9 construct: also called Gal2
T9 sequence (looked up): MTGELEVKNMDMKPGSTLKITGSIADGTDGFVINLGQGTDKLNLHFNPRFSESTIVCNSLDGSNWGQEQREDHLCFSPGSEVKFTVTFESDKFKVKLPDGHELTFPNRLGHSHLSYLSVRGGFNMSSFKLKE
The assay is described as above. On the procedure: as §1

Assay [10] concerns the target T10, recombinant human galectin-3 (R&D Systems) (human, UniProt P17931 2-250).
T10 construct: also called Gal3
The assay is described as above. Here is the method:
as §1

In assay [11] the target is T11, endogenous murine Gal1 (galectin-1) in lysates of the murine melanoma line B16-F10 (mouse, UniProt P16045 2-135).
T11 construct: Endogenous protein in cell lysate, seen on Western blot; also called mouse Gal1
T11 sequence (P16045 2-135 limits assumed): as the sequence (P16045 2-135 limits assumed) above
Kind of assay: Western blot of B16-F10 cell lysate, antibody titration.
From the text: as §2

T10 sequence (P17931 2-250 limits assumed): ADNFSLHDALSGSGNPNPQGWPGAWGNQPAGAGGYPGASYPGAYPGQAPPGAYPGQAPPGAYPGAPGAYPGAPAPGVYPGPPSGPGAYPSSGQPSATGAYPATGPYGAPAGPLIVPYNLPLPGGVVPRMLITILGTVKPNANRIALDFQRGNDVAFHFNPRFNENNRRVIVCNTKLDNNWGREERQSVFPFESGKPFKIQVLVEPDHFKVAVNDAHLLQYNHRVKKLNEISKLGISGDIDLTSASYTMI
T8 sequence (P47929 2-136 limits assumed): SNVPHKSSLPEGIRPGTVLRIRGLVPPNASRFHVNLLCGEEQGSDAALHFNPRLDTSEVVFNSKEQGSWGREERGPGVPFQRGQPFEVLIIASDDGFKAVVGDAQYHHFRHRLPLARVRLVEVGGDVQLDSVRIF
T7 sequence (O00182 other isoform, or with tags, fused parts or gaps limits assumed): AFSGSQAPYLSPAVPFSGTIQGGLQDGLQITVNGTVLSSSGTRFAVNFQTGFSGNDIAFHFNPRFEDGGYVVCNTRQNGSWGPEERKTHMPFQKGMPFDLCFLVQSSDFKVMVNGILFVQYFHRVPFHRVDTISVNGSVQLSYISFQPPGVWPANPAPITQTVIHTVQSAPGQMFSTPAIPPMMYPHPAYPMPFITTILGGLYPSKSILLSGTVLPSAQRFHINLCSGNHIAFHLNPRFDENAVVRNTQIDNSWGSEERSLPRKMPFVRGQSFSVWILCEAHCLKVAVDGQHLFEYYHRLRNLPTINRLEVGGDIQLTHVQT
T1 sequence (P09382 2-135 limits assumed): as the sequence (P09382 2-135 limits assumed) above
T3 sequence (P09382 whole entry): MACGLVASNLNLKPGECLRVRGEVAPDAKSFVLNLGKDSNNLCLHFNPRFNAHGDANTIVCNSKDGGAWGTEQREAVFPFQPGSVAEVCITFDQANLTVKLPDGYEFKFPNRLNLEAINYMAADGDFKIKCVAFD

B1: anti-Gal1 monoclonal antibody 8A12.H9.H10 (antibody, V domains shown)
VH: QAYLQQSGAELVRPGASVRMSCKASGYTFTRYNMHWVKQTPRQGLEWIGRIYPGNGDTSYNQKFKGKATLTVDKSSSTAYMQLSSLTSEDSAVYFCTVWDYWGQGTTLTVSS
VL: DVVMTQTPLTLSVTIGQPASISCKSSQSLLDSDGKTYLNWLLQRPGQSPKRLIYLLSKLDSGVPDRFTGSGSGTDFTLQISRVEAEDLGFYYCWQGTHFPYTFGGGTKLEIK
notes: Murine monoclonal antibody from a hybridoma with a kappa light chain; Signal peptide limits are stated in base pairs and were converted to residues; also called 8A12 mAb; 8A12 antibody
For B1, the binding result in assay [1] was “binds”; in assay [2], “binds”; in assay [3] it was “binds”; in assay [4], “binds”; in assay [5], “no binding”; in assay [6], “no binding”. The binding result is on record as “no binding” in assay [7]; “no binding” in [8]; “no binding” in [9]; “no binding” in [10]; “binds” in assay [11].

The values above are taken from US10519238 (Dana-Farber, dated 2019).
